Measured values from patent US20130045200A1.

Target: rat PD-L1 (rat) (UniProt D4AE25)
Experiment: flow cytometry (FACS); rat cells or protein not described

YW243.55.S70 (IgG) (antibody)
EC50: 0.8 nM
